In the supplement of paper PMC12764529:
± gives the half width of the 95% confidence interval.

Tests used:
[1] = folding stability dG unfold from chymotrypsin proteolysis; higher = more stable
Procedure: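 Folding stability of de novo designed mini-proteins (<80 aa, no Cys; designed by TrROS, TrMRF, ProteinMPNN and the joint model) was measured by cDNA display proteolysis with trypsin and chymotrypsin. Each protease was used at 11 concentrations in a threefold dilution series plus a no-protease condition. K50 was inferred by Bayesian fitting of sequencing counts, and dG unfold was derived against a sequence-predicted unfolded-state K50 (Tsuboyama et al. method). Sequences shown include variable-length N-terminal GS-type padding (SAGGSAGG...) inside a display construct carrying a PA tag. Rows were kept only if the AF2 dimer inter-PAE was >15, to exclude likely homo-oligomers.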

[2] = folding stability dG unfold (combined trypsin and chymotrypsin); higher = more stable
Summary of the method: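 Only designs with AlphaFold2 dimer inter-PAE above 15 were retained; each was a mini-protein under 80 residues with no cysteine, in a PA-tagged cDNA display construct. After digestion with trypsin and chymotrypsin and sequencing, K50 was inferred by Bayesian fitting of counts, and unfolding free energy was derived per protease or combined against a sequence-predicted unfolded-state K50 and a shared folded-state K50.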

Sequence | folding stability dG unfold [1] [kcal/mol] | folding stability dG unfold [2] [kcal/mol]
SAGGSAGGSAGGPSSLLDGTPVELSVSPVEVNSVSTVTLPNGSTVPVSKKVKKTVVSVVASAGGSAGGSAGG [r7_90_JUSTAS] | 0.61 ± 0.075 | 0.23 ± 0.097
SAGGSAGGSAGGPVLIRAVFTPPNGPVLELVVPSPEEVVELAKPFDVEVHIEPISPDDPFSAGGSAGGSAGG [r7_456_TrMRF] | -1.12 ± 0.45 | < -1
SAGGSAGGSAGGRIRLPGWEIEDVKVYETGDKPYYTITYKNPNGKPKKMLMPADDLDDFSAGGSAGGSAGGS [r10_645_TrROS] | -0.216 ± 0.61 | -0.618 ± 0.52
SAGGSAGGSAGGSAVEVDPNGGVTRTRYPGGAVRLETVSPTPDGSLATRTEEVELPGLASAGGSAGGSAGGS [r4_248_JUSTAS] | 0.871 ± 0.013 | 0.403 ± 0.051
SAGGSAGGSAGGSAVTSDGTEVEPDQLVEEATLTPPDGEPVRLRVYAVPDSDEVVTEAGSAGGSAGGSAGGS [r4_13_TrMRF] | 0.691 ± 0.26 | < -1
SAGGSAGGSAGGSDMEIVPRRIPDGFRLMVARNPEGTYTVQVWNPNGKPKWETIPPDEISAGGSAGGSAGGS [r4_120_TrROS] | -0.185 ± 0.22 | -0.485 ± 0.21
SAGGSAGGSAGGSDPSMSLETFVIPESTSTVTLTDPSGTLRTLTTGRDPLTLTEVLPPRSAGGSAGGSAGGS [r4_162_JUSTAS] | 0.459 ± 0.12 | -0.078 ± 0.17
SAGGSAGGSAGGSDSSVITFDIPVSEYPAKIKLSPETKTMTVVSTSPEGTVKVAIERPGSAGGSAGGSAGGS [r10_352_JUSTAS] | -0.297 ± 0.14 | -0.889 ± 0.48
SAGGSAGGSAGGSEEKPIPIKVKIWKPNPGELVEEKEYLIPSNGSAEEIKKAFPNAEISSAGGSAGGSAGGS [r4_187_TrMRF] | 0.689 ± 0.15 | 0.12 ± 0.3
SAGGSAGGSAGGSGPPHMRTTNEVTITLDGTVVSGSTPLPESLPPGVETYTTETYLPPLSAGGSAGGSAGGS [r4_436_JUSTAS] | -0.308 ± 0.13 | < -1
SAGGSAGGSAGGSGPPLRTEERVEEVTLPNGERLLVETTTLTDPVTGETTVSRSIRLPLSAGGSAGGSAGGS [r4_445_JUSTAS] | 0.53 ± 0.1 | -0.38 ± 0.19
SAGGSAGGSAGGSKIEVYKEPNKITIVIHPGNKPLVFTATEPIPIETLIKKAREAFPDASAGGSAGGSAGGS [r4_191_TrMRF] | 0.516 ± 0.12 | -0.0455 ± 0.13
SAGGSAGGSAGGSLVSTSPLPSSSTLVTEKGPSPEVTVTVVTVKPGGSRSVTTLPVSESSAGGSAGGSAGGS [r10_140_JUSTAS] | 0.474 ± 0.057 | -0.143 ± 0.12
SAGGSAGGSAGGSMETVEVTEVSFDPSKGTRFVKTTVTRKDEKGNWVEKEEWITEPVLGSAGGSAGGSAGGS [r4_85_JUSTAS] | 0.338 ± 0.059 | -0.0805 ± 0.12
SAGGSAGGSAGGSMKTEEVVYVKTPDAWVRLKKEEAEKLEKETGVKIERESFTLPAGALESAGGSAGGSAGG [r7_185_JUSTAS] | 0.89 ± 0.17 | 0.405 ± 0.24
SAGGSAGGSAGGSMKTITFTDPAEIAAAIEEAEKEGVEEVVLLTPEGKTRVIPKGVPLPSAGGSAGGSAGGS [r4_260_JUSTAS] | 0.516 ± 0.083 | -0.00846 ± 0.37
SAGGSAGGSAGGSMKTTTLTVKPEELEEVKKKLTPPDKTVTIKSVTKDPKEDLVTLTVESAGGSAGGSAGGS [r10_1030_JUSTAS] | -0.517 ± 0.59 | -0.923 ± 0.65
SAGGSAGGSAGGSMVYRVVLEPESGERVEFEVTYDEAEELLEKLPPNARLRIEPVPEDASAGGSAGGSAGGS [r4_63_TrMRF] | 0.265 ± 0.13 | -0.0741 ± 0.17
SAGGSAGGSAGGSSSMTSEKVTEKTEFDKETGKKYKIITQRISPSSVGNSSLKTEIKLESAGGSAGGSAGGS [r10_535_JUSTAS] | -0.0486 ± 0.25 | -0.735 ± 0.61

Sequence | folding stability dG unfold [1] [kcal/mol] | folding stability dG unfold [2] [kcal/mol]
SAGGSAGGSAGGSSVVIVADSAEEAKAALKELGIKDAKVVPLKPVKVFTDEQLKELKKKSAGGSAGGSAGGS [r4_101_TrROS_Hall] | 0.943 ± 0.039 | 0.276 ± 0.28
SAGGSAGGSAGGSVEIRDARIELGDNTLRIEISFPDGGTRRIEIEVEPVPPLPPSLLDRSAGGSAGGSAGGS [r4_372_TrMRF] | 0.109 ± 0.11 | < -1
SAGGSAGGSAGGSWMRMEAEVRHPNKRDVTIPIPYRSKDGEPDMKERAKEFARELAKDYSAGGSAGGSAGGS [r4_168_TrROS] | -0.315 ± 0.21 | < -1
SAGGSAGGSAGGTVKELMKKLPFGAQIEIDEIEHDKGRIEIPIRVENMPPEWREKLRKLSAGGSAGGSAGGS [r10_733_TrROS] | 0.0365 ± 0.15 | -0.305 ± 0.23
SAGGSAGGSAGGVAEWIQEQGFKVKDIPVPRPPNGNPWVKVEVEHDGGKRTYEIPLDEISAGGSAGGSAGGS [r10_35_TrROS] | 0.487 ± 0.12 | 0.0288 ± 0.14
SAGGSAGGSAGGVRPNPNGQYEVTVTIRNPGGGNKREKTINATPDEIEELQDQGFEIEPSAGGSAGGSAGGS [r10_749_TrROS] | -1.08 ± 0.35 | < -1
SAGGSAGGSAGGVYKVEIEIGDAPRTLVVENAAPEEIRAFLEHPEVRRARVEPLSPEELGSAGGSAGGSAGG [r7_502_TrMRF] | 0.216 ± 0.12 | -0.152 ± 0.11
SAGGSAGGSAGGYDPNDKPVVEVPIELPPNDKKNPDRMKENAEEIANPLQEKGKPDRIVSAGGSAGGSAGGS [r10_723_TrROS] | 0.907 ± 0.11 | 0.475 ± 0.24
SAGGSAGGSAGIKIYAPGFPGMPVEIERDPDEPNVIKIKIKGPDNGEPQERTFPADDLEISAGGSAGGSAGG [r17_341_TrROS] | 0.526 ± 0.074 | -0.169 ± 0.28
SAGGSAGGSAGIKKQRNPDGQERETIEIRTKNQPIPITFPPDDNADDLANNFGLPADDIRSAGGSAGGSAGG [r11_1039_TrROS] | 0.682 ± 0.039 | 0.28 ± 0.079
SAGGSAGGSAGKLKVEIEERNGKLVLKVKLELEPEPEPVEVEKKVEVKTETKMSLEELKKSAGGSAGGSAGG [r17_51_TrROS_Hall] | 0.952 ± 0.058 | 0.471 ± 0.096
SAGGSAGGSAGMEMKLRPEPVVEVTPTVTTEPDPSLGTTVTTTTYTFDNGEVKTETDTGGSAGGSAGGSAGG [r11_463_JUSTAS] | 0.0371 ± 0.25 | -0.441 ± 0.28
SAGGSAGGSAGMKVFIFKDPEKAIEAIKEFAGKNGVKYKIIEIETTPDGYVKIKVEFEPISAGGSAGGSAGG [r11_304_TrMRF] | 5.31 ± 0.22 | 5.48 ± 0.25
SAGGSAGGSAGMKYIEEAKAKAKPDKKLKITIPPSLPVEEVRKELLEEVPIDDVEFIKNLSAGGSAGGSAGG [r11_524_JUSTAS] | -0.491 ± 0.26 | < -1
SAGGSAGGSAGMLNTTVTVSIPTPEGKVETITIPPGVPLEEAKAKVAEPRPGAEITEIVRVSAGGSAGGSAG [r3_60_JUSTAS] | 0.764 ± 0.044 | 0.165 ± 0.21
SAGGSAGGSAGMRLLVEKPEGPVPTVTEVEVPLPEGDKARLEEVKEELKKKGYKKVIFLDSAGGSAGGSAGG [r11_196_JUSTAS] | -0.417 ± 0.37 | < -1
SAGGSAGGSAGMTITVYPSDGTVLTRDMSLSEIPELLKKHPELVLESIEEGEGLAKFKVKSAGGSAGGSAGG [r17_22_JUSTAS] | -1.05 ± 0.81 | < -1
SAGGSAGGSAGMTSTVTEVRPGSDSWTVTVTYSENSSTKTQTLTVPAGPTVRSGLPSVVSSAGGSAGGSAGG [r11_921_JUSTAS] | 0.209 ± 0.15 | -0.435 ± 0.23
